# Reference: US20080201790A1, “Method and product for regulating cell responsiveness to external signals” (priority 1993, published 2008)
# Test system: Gal4/Jun
# Test: Gal4-TK-luciferase transactivation analysis, Gal4/Jun
# Format: cell-based
# Conditions: IPTG-induced stable expression in Swiss 3T3 cells
# Text: Swiss 3T3 cells were transfected using calcium phosphate or lipofectamine with the reporter plasmid Gal4-TK-luciferase, which contains four Gal4 binding sites (Sadowski, I., et al. (1988). Nature 335, 563-564). adjacent to a minimal thymidine kinase (TK) promoter that controls expression of luciferase, in the presence or absence of activator plasmids encoding Gal4(1-147)/Myc(7-101) (Gupta et al. (1993) Proc. Natl. Acad. Sci. USA 90:3216-3220), Gal4(1-47)/Elk-1(83-428) (Marais, et al. (1993) Cell 73:381-393) or Gal4(1-147)/c-Jun(1-233) Hibi et al. (1993) Genes & Development 7:2135-2148). Transfections included pCMV5 without a cDNA insert (basal control), pCMV5MEKKCOOH and in some experiments pCMV5BxBRaf. Cells were incubated for 24-48 hr after transfection, lysed and assayed for luciferase activity. Values were normalized to equivalent μg protein for all experiments.
molecule,measurement,value
MEKKCOOH: a truncated activated form of MEKK1 including the entire kinase domain (protein) MAMSASQDALPIVPQLQVENGEDIIIIQQDTPETLPGHTKAKQPYREDAEWLKGQQIGLGAFSSCYQAQDVGTGTLMAVKQVTYVRNTSSEQEEVVEALREEIRMMGHLNHPNIIRMLGATCEKSNYNLFIEWMAGGSVAHLLSKYGAFKESVVINYTEQLLRGLSYLHENQIIHRDVKGANLLIDSTGQRLRIADFGAAARLASKGTGAGEFQGQLLGTIAFMAPEVLRGQQYGRSCDVWSVGCAIIEMACAKPPWNAEKHSNHLALIFKIASATTAPSIPSHLSPGLRDVAVRCLELQPQDRPPSRELLKHPVFRTTW,Gal4/Jun activity,little effect on Gal4/Jun activity
